Data as given in the supplement of paper PMC12636428.

Test system: Saccharomyces cerevisiae
Test: transcriptional activation domain activity (GFP:mCherry ratio, weighted mean of sorted bins, harmonized to initial dataset scale) (arbitrary fluorescence ratio units); higher = stronger transcriptional activation
Settings: beta-estradiol 1 µM; induction time 4 h
In short: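 Barcoded protein tiles fused to an estradiol-inducible synthetic transcription factor were integrated at the yeast URA3 locus, in diploids carrying a GFP reporter. Cultures were diluted 1:5 into SC with 1 uM beta-estradiol, held 4 hours at 30 °C, sorted into 8 bins by GFP:mCherry ratio, and barcodes sequenced. Tiles under 50 reads were discarded. Activation activity is the read-weighted mean of bin median fluorescence, averaged across barcodes, then linearly mapped onto the initial dataset scale.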

Sequence	transcriptional activation domain activity
RSPRRQTQSSSTTPPARKTPTQTTKTHRTTSPTTRSSCRRASGRQTAPTHSSC	43100
RSRAEGGSSPGRGGSEDGAGAGKPGKERRDKSRGARAKQCGCKAVNQDKSCEC	21900
RSRRAHPRTTSSRASPSCARSSRAPPRATSSSASTTSSTGTRSRTTTPSTSPR	18000
RSRSPEPARKKVDVKQEEPLASSKWAKDDDETLRKRESELKEGLLRKKVTASL	34800
RSSKPSSRFLVLTKQKVYILVTRMVQNAPQTTIERSVGISSISSASVSTLQDD	29600
RSSLSSPPCPRSRRRMRVRSSTTTSTSPPARSSSADRTRPTSTTTAARPPACP	22000
RSSRRDRDEDENERHSRHRRENRRRSHSSDERHGDARRRDEKSRHHRSSRHER	17900
RSSRSKRRSRSPHDSSHKRRSRKEGRRPPSRERDEEDGEKRRHRSSRSHRRRR	11400
RSSSGKDRDRERDGGRDRNGKSSSSSRRREKERDEDSGDERRKSSSSSRRRRD	44400
RSSSKKKDASDDEDKHSRRKSSSRKKGSDEEDDKSRHSRSASASKKKDKKSYD	14300
RSSVGAYIKPKQQVVAVPCVGPHDSGINVLYLCAPSVEEVVMLTRFVILHLGG	55500
RSTMKIVEEEDQRRRAIRKTCCALCGREEGVSLRCKRCKTVLYCSPSVRGCQL	33200
RTESYDHMEPVGVDPRWDAFGPFHDYLLQAFPLVHSTLSLTKVNTWGLVYVWP	47400
RTFLRWTLDTLAQCTTFEVMWLILTGVIQDYIDEYKRNRTLTKLLIEALIKSY	55500
RTILLASYIFSNIFVCLIVLNDSLKILWWLGDSYWHKIWFFRIWLWANSISFL	74800
RTKASGSSGEAAAASGGASSSKAEDARAEGGEEAAKPRRSSRLSAKSAGESAG	15000
RTKDEMKCTSCNAPTSRVCARCKHTLYCSSEHQKKHWKQHRQACVPYGAQLVK	50600
RTLLVVLISMLYFLTVEMFLPVFYLFDESLYNFLSWILTAFWSRLALWVLGFY	56000
RTMGKQDPYCAMRLGKEAKKTNTDRRGGQTPRWDQELRFTVHDSPDYYKLKCS	44300
RTPTYDRRTIIQGLQQAEMNLDNSFKRVSEMILMLMIRMHDWSTLRRRFQMDQ	45200
RTSDRYLETLDALFVDKFVYAHAWTTFMSTCLKTWRRDCCSSAMLLLLHILCF	54900

Sequence	transcriptional activation domain activity
RTSEMIMGFFFKNIVWTFVLFWYQIFCQFNGSMMFEYVLVALYNLIFTSLPII	62900
RTSRHLTLLFWSPLLFFSILLLLPIFLPLFLRFLLLWFPILLLLPLLCFLLLW	13000
RTTALGVWFLLIQSLWYFTFGALYIWFFCHTWEYLSTLLVFDYLLRFILCLMF	68100
RTTALGVWFLSIQFFWYALYGALYIWFFFMPWEKLSVLLAFDYFMRLLLCFMF	45700
RTTSLGVWFLLIQFLWYGAFGVLYVWFFCQTFEYFNTLLVFDYILRFILCLMF	51200
RTTSLGVWFLLIQSLWYCAFGVLYVWFFCQTFESFNTLLVLDYILRFILCLMF	86900
RTYVQYWIQAFPKIARFFTIFFAAMSVTRYKAFMDSPVLALNNLAKRILRMSL	44500
RVEAQVRDRRVEAQVRDRRAEAQVRARDHRSKVQVRNRQSKAEAEAQVRSQAR	33900
RVEEEGKSGVPAGDRFCGISLRPGILTDGEAGGVKVGKIGTGGKTARATVAES	22900
RVELLLRSFKVFTLKTGEQCLDYLGDKFRVVLNLPEDWTNTAVGAWLVQKVIL	39700
RVFLFRLMLSLIYTFLGSLCVTGAVWAYRVNWKVNGNQFVLSWMAIWLFAHCN	44800
RVFTKIRRLLIRLKKHDIHAVCAALLTYIFWPTAFLRAYCLDSIYYDPASRDK	54100
RVFTVPGKCFFDALAADSTDASCTEESLKKIWNELHTTSSEIEPWSNGYIDIS	98000
RVHMLLCICLIATFVGVTVDLALEILFRLSQFSESPRFSPTGSRTLILTLPLF	45300
RVHPTCLKEFGTADFICGQCNSIYRSGRFLRIARCICLMCHLLSLASTVGLIF	57300
RVLETPAIFPSFLNTALFPMPFIVGLILFFFFALFPFPLPFLSPSFFPSILQY	43200
RVLNLTIHCAIWVRLYASLAWQKFADTLVHLELQFFTSSVLRAIPQNVCCRHL	38100
RVLVILRMWAFCYRGNGRTKYAHEMLHLLHNLICVWTKELRHIVLQNWLANPQ	61100
RVPPNSSQKTGEPSSSSTKPVASSAVRNRVPPNSSQKTGEPSSSSTKPVASSA	52900
RVPWSSAISKRLQTYHEMLQSFPFVWRMIKDVLGLKSCRYLLVLYLFCEAVTS	62000
RVRAAERAGQQAGREGRRGRQRGEHARRGGRAAHERAAQAHHRAPVPVPVRVP	62200

Sequence	transcriptional activation domain activity
RVSDYSMAQFRFLLKFLLVHGRWNYIRICKYTISTFWKELLFYLTQAMYQRWN	28800
RVVLRCLFLAYECIEEADVKSTLSYTIEVAFNLITSTCDYIGPVAMSHALRAG	53900
RVVSAFGWKADKHLGFALLKLCLEDRRIRSPMASLMLLAYYTVLTSLCPQVLA	60900
RVVVVTDAFQKMDHFYWSLQAWLMYRFDALSACSTFAMTLLALYDDLSPGLTA	83700
RVVYVSCNVHTQARDVGVLVRGEVEDVAANSNNTNMSTTTKNKTGGGVRYEIE	23600
RVYKRDPMLYLSSGWQYQGHFVYVTRLDVIHLSSWLRVFCFQIQHFSSVWWVL	59000
RWCARCMLLTATIHMGYFFSAWAPYDYIGYQLKNNKIVWKGLAAWCTLVWIVF	47700
RWCARCMLLTATLHMGYFFSAWAPYDYIGYQLKNNKIVWKGLAAWCTLVWIVF	93300
RWGGILNTHLCLLSTLVLCCTMLRFCINVIWTDTFVNWEMGWRTVCPWLLILL	44600
RWGLGRWWVPFQLFVIFWDLDNWPVFGLRPWVFEFMEGPLEYVLSFLVLFTAK	67500
RWINSTIHNLFEVVMLPDLCGFCCFSMRFVVLLDLIGTLSLPVSFVYLVYLIY	64400
RWIRVRKHMVLAATLVEPFTESVVLSIICASSLKYLFGVWLWISICVHFALWA	48100
RWQYATLFFSGVSGGATLALSLCVITHPSLLTRIVVVCIFLTLISAFTILPIS	38500
RWSYLRTSEMILTFFYKNIMWTLVLFWYQLFCGFSGTMMFDYSYITLYNLVFT	63200
RYEAQGGGYKDTGDNKNKAKKGTPERKTKEDGKEEEEKGDKKEEAKKEEGKKE	22800
RYIATGRGFATTRISFSILFSRFAGPSIYLGMRTLLMLLYVTLSFWTPYLIYF	54700
RYLKCGGHVKHFFDLSRRADLSLEWLRRYPMEAVITDQIVSWLCHICLRQMRV	46000
RYLLLSIRDWPCIYIHDLFVFIVSLITDVPDDFLILNFQDLLFFFFVFVFLIF	66200
RYLNITGRCRCSLQDLSFSVLLIRSLGAPLVELHVCCLYWWFGAYRLRFIFFI	55000
RYLRHIKNIVFVLVLLNYWSKLYNTVLIGGPVRAVHDFKTYLIRIVFRQLRRL	47300
RYLYAAMNLLSIINPIFSLIQFVIACFLVAGNLSLVYVRVWGPIVLLSLFLFD	45800

Sequence	transcriptional activation domain activity
RYNHLFDETLVAICVLLGRIGGRFIVDDFEVMWCHNLFRTKVVKAIVVFALAY	39600
RYPFILFPFYSLLSHFLLLLTEIALCLKYCLLLSLCSPILLFLLVFLLLAFCL	47600
RYPPKHILISQSLILILLCFHLSFVWNKEFAPFNIESRTLFICFLGYLPILLL	36900
RYWTFMTFLSIFLSIFACFLWIAVYSLFPTFFFDWELIILYSTMNFWATVVVV	51700
SAAAAAGTGAAAAATAGGKTGETQAAGAKKLKLSEEGKGKEKAAAAAAAEDQK	22100
SAAAAAPVAAAAAPAAASSIAPAVVGGAVGAAAIGGGAAIAASSDKAAAAAAA	37700
SAASRVAEEKSGDDEAAAAPGTGATPEGVKRKTTRGGKKNRSKKEGGAAAAAA	< 6570
SADDSAGEARQREKSEESGTRRSRKSHDRESKEGAEGADEAESWERSSKKKSR	29600
SADIERRHHKKNHKGGANAGNAAGNNNNAGGNAGNATAAAANRRDVVEDLQSR	13900
SADTQKEEGKRAKVEKNRRGKRDGHKAGRFSGGRRKERGEASTQAGAAAAGAN	37500
SAEFRANEFARHPLLDALLLSLMVDGSSTLLEIEVATLVCLLRQFAIHAPDTL	51800
SAEHQTEAYESDGGRQCVRLLLTSYCSPILIVALHPVLPGRFLCVVKLATQKS	39900
SAFDLADAIEKQSVSKLEKFSTTALSLELNCLVCLIKVLLKMYLSSDPAFEPY	42200
SAFGGGGGASAFGSGTSAFGSGANTGSAFGGTASTPSTASAFGGGSAFGGAGS	32700
SAFGSSANAPTSGGFGAFGQPVAAAATTSAFGSTTPFGAAAPSPAAPAAAASP	25700
SAGTAQAGKKPRILLKVNGRSYQRVDCVGRGGSGKVYKVTAENGKMFAMKRVS	45100
SAGYYSRVSFFFFSNYHLIILHVFFFFFFFVYWVYFSSSDFFFLLGLTIFCFF	57900
SAHWILKAYYTDRRVLFGFCFGNEAFFMLIYLMEYLDGFCFYFVSFLALLAFP	57200
SAKEEPGAAETDADTDPEPAAGKKRKRQEDKGEAQEGGSGKKSVGGKKAKQAE	19200
SAKSLRLTVDEVKMLHRPALWYLIVGLVDTVAAARLRYFSFILHRPPLRQTLS	47800
